Blank lines part the entries; values can stand above or below the substance they belong to.
Tests used:
Conditions in all cases: scale: % of the maximum spliced product formation
[1] = molecular target: split mCherry-split intein C-terminal chimeric protein, IMPDH-1 intein split at site S2
[2] = molecular target: split mCherry-split intein C-terminal chimeric protein, SspGyrB intein split at site S2
[3] = molecular target: split mCherry-split intein C-terminal chimeric protein, NrdJ-1 intein split at site S2
[4] = molecular target: split mCherry-split intein C-terminal chimeric protein, gp41-8 intein split at site S2
[5] = molecular target: split mCherry-split intein C-terminal chimeric protein, gp41-1 intein split at site S2

in vitro trans-splicing of mixed lysates (room temperature, 100 mM Tris-HCl pH 9.0, 100 mM NaCl, 2 mM DTT): spliced mCherry by Western blot, share of the maximum spliced product within 1 h [1]: > 75
Substance: split mCherry-split intein N-terminal chimeric protein, IMPDH-1 intein split at site S2 (domain or fragment)

in vitro trans-splicing of mixed lysates (room temperature, 100 mM Tris-HCl pH 9.0, 100 mM NaCl, 2 mM DTT): spliced mCherry by Western blot, share of the maximum spliced product within 1 h [2]: > 75
Substance: split mCherry-split intein N-terminal chimeric protein, SspGyrB intein split at site S2 (domain or fragment)

in vitro trans-splicing of mixed lysates (room temperature, 100 mM Tris-HCl pH 9.0, 100 mM NaCl, 2 mM DTT): spliced mCherry by Western blot, share of the maximum spliced product within 1 h [3]: > 75
Substance: split mCherry-split intein N-terminal chimeric protein, NrdJ-1 intein split at site S2 (domain or fragment)

in vitro trans-splicing of mixed lysates (room temperature, 100 mM Tris-HCl pH 9.0, 100 mM NaCl, 2 mM DTT): spliced mCherry by Western blot, share of the maximum spliced product within 1 h [4]: > 75
Substance: split mCherry-split intein N-terminal chimeric protein, gp41-8 intein split at site S2 (domain or fragment)

in vitro trans-splicing of mixed lysates (room temperature, 100 mM Tris-HCl pH 9.0, 100 mM NaCl, 2 mM DTT): spliced mCherry by Western blot, share of the maximum spliced product within 1 h [5]: > 75
Substance: split mCherry-split intein N-terminal chimeric protein, gp41-1 intein split at site S2 (domain or fragment)

— article PMC7090010
